PMC9482650, “Quantitative fragmentomics allow affinity mapping of interactomes” (Nature Communications, 2022)

T1: NHERF3_1, Q5T2W1
T1 sequence (Q5T2W1 4-100, limits assumed, looked up): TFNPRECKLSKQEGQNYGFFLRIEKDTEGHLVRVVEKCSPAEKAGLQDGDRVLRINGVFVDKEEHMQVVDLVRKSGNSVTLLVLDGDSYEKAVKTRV

T2: MPP6, Q9NZW5
T2 sequence (Q9NZW5 125-219, limits assumed, looked up): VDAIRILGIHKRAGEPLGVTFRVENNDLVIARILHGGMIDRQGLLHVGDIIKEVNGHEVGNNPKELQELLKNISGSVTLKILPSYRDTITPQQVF

T3: SYNJ2BP, P57105
T3 sequence (P57105 8-110, limits assumed, looked up): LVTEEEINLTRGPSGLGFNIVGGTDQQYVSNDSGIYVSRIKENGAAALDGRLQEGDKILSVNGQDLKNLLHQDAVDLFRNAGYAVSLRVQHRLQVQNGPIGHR

T4: LIN7B, Q9HAP6
T4 sequence (Q9HAP6 88-185, limits assumed, looked up): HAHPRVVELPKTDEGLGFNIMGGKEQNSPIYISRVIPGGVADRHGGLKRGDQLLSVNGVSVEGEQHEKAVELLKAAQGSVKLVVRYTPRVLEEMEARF

T5: ARHGAP21, Q5T5U3
T5 sequence (Q5T5U3 45-169, limits assumed, looked up): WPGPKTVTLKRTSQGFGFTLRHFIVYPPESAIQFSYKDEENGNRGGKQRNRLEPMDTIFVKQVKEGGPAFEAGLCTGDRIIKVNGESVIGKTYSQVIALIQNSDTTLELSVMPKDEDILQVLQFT

T6: DFNB31_2, Q9P202
T6 sequence (Q9P202 274-371, limits assumed, looked up): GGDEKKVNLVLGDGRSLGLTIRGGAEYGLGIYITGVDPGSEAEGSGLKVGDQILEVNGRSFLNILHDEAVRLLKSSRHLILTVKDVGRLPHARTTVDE

T7: PDZRN3_1, Q9UPQ7
T7 sequence (Q9UPQ7 244-349, limits assumed, looked up): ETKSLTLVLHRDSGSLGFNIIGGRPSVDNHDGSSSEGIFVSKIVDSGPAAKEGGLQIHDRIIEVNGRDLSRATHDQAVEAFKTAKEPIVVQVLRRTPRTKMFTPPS

T8: SNTG1, Q9NSN8
T8 sequence (Q9NSN8 52-150, limits assumed, looked up): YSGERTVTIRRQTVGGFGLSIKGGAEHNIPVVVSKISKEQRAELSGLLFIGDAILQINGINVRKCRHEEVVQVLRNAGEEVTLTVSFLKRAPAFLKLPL

T9: MPP7, Q5T2T1
T9 sequence (Q5T2T1 134-230, limits assumed, looked up): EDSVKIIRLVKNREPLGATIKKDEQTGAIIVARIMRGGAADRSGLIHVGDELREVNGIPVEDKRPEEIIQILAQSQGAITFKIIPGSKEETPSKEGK

T10: HTRA4, P83105
T10 sequence (P83105 378-476, limits assumed, looked up): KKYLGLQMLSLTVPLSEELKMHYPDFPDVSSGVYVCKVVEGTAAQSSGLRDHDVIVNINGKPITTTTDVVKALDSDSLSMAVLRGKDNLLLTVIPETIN

T11: DLG3_2, Q92796
T11 sequence (Q92796 221-321, limits assumed, looked up): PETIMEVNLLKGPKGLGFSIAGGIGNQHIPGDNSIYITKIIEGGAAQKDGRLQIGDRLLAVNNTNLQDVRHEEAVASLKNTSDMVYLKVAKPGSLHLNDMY

T12: GRIP1_3, Q9Y3R0
T12 sequence (Q9Y3R0 247-346, limits assumed, looked up): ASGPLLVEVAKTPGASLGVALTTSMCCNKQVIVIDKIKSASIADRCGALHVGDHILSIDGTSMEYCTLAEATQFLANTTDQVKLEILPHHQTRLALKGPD


These binders were tested against LDB3, O75112 (assay: holdup assay). Details: plain residues with an end cap or a label only (N-terminal biotin on a linker: ado-ado).
Design: key: below the threshold = too weak to quantify, mostly under pKd 3.1 to 4

Chain of LDB3, O75112 (O75112 1-94): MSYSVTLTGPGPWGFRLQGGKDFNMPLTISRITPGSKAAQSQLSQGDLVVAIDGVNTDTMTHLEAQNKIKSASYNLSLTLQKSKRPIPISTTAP

| pKd | Binder |
| --- | --- |
| below the threshold | PASAKGPLGV [CLDN19, Q8N6F1] |
| below the threshold | RELVMRVTTV [MARCHF4, Q9P2E8] |

What follows are binders tested against PICK1, Q9NRD5 (assay: holdup assay). Details: plain residues with an end cap or a label only (N-terminal biotin on a linker: ado-ado).
Design: key: below the threshold = too weak to quantify, mostly under pKd 3.1 to 4

Chain of PICK1, Q9NRD5 (Q9NRD5 17-115): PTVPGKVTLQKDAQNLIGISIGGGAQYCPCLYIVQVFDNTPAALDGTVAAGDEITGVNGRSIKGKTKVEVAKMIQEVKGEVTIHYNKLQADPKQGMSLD

| pKd | Binder |
| --- | --- |
| below the threshold | PASAKGPLGV [CLDN19, Q8N6F1] |
| below the threshold | RELVMRVTTV [MARCHF4, Q9P2E8] |

These binders were tested against T1, NHERF3_1, Q5T2W1 (assay: holdup assay). Details: plain residues with an end cap or a label only (N-terminal biotin on a linker: ado-ado).
Design: key: below the threshold = too weak to quantify, mostly under pKd 3.1 to 4

| pKd | Binder |
| --- | --- |
| below the threshold | PASAKGPLGV [CLDN19, Q8N6F1] |
| below the threshold | RELVMRVTTV [MARCHF4, Q9P2E8] |

These binders were tested against GRIP2_5, Q9C0E4 (assay: holdup assay). Details: plain residues with an end cap or a label only (N-terminal biotin on a linker: ado-ado).
Design: key: below the threshold = too weak to quantify, mostly under pKd 3.1 to 4

Chain of GRIP2_5, Q9C0E4 (Q9C0E4 544-642): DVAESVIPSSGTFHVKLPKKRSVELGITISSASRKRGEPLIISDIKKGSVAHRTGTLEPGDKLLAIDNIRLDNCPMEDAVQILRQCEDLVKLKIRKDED

| pKd | Binder |
| --- | --- |
| below the threshold | PASAKGPLGV [CLDN19, Q8N6F1] |
| below the threshold | RELVMRVTTV [MARCHF4, Q9P2E8] |

Each binder was assayed against T2, MPP6, Q9NZW5 (assay: holdup assay). Details: plain residues with an end cap or a label only (N-terminal biotin on a linker: ado-ado).
Design: key: below the threshold = too weak to quantify, mostly under pKd 3.1 to 4

| pKd | Binder |
| --- | --- |
| below the threshold | PASAKGPLGV [CLDN19, Q8N6F1] |
| 3.59 | RELVMRVTTV [MARCHF4, Q9P2E8] |

Each binder was assayed against T3, SYNJ2BP, P57105 (assay: holdup assay). Details: plain residues with an end cap or a label only (N-terminal biotin on a linker: ado-ado).
Design: key: below the threshold = too weak to quantify, mostly under pKd 3.1 to 4

| pKd | Binder |
| --- | --- |
| below the threshold | PASAKGPLGV [CLDN19, Q8N6F1] |
| 4.82 | RELVMRVTTV [MARCHF4, Q9P2E8] |

These binders were tested against GRIP2_7, Q9C0E4 (assay: holdup assay). Details: plain residues with an end cap or a label only (N-terminal biotin on a linker: ado-ado).
Design: key: below the threshold = too weak to quantify, mostly under pKd 3.1 to 4

Chain of GRIP2_7, Q9C0E4 (Q9C0E4 934-1023): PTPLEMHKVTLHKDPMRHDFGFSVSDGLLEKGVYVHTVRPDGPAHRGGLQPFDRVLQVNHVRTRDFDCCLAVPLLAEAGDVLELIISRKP

| pKd | Binder |
| --- | --- |
| below the threshold | PASAKGPLGV [CLDN19, Q8N6F1] |
| below the threshold | RELVMRVTTV [MARCHF4, Q9P2E8] |

Each binder was assayed against Inadl_2, Q8NI35 (assay: holdup assay). Details: plain residues with an end cap or a label only (N-terminal biotin on a linker: ado-ado).
Design: key: below the threshold = too weak to quantify, mostly under pKd 3.1 to 4

Chain of Inadl_2, Q8NI35 (Q8NI35 238-335): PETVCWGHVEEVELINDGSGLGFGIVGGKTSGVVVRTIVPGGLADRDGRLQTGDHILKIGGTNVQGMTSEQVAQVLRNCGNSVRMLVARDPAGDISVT

| pKd | Binder |
| --- | --- |
| below the threshold | PASAKGPLGV [CLDN19, Q8N6F1] |
| below the threshold | RELVMRVTTV [MARCHF4, Q9P2E8] |

The binders below were run against MAGI1_2, Q96QZ7 (assay: holdup assay). Details: plain residues with an end cap or a label only (N-terminal biotin on a linker: ado-ado).
Design: key: below the threshold = too weak to quantify, mostly under pKd 3.1 to 4

Chain of MAGI1_2, Q96QZ7 (Q96QZ7 456-580): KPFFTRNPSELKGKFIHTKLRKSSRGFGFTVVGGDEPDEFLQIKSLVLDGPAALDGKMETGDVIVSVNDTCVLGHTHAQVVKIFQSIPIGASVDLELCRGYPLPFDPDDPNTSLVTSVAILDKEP

| pKd | Binder |
| --- | --- |
| below the threshold | PASAKGPLGV [CLDN19, Q8N6F1] |
| 4.81 | RELVMRVTTV [MARCHF4, Q9P2E8] |

What follows are binders tested against T4, LIN7B, Q9HAP6 (assay: holdup assay). Details: plain residues with an end cap or a label only (N-terminal biotin on a linker: ado-ado).
Design: key: below the threshold = too weak to quantify, mostly under pKd 3.1 to 4

| pKd | Binder |
| --- | --- |
| below the threshold | PASAKGPLGV [CLDN19, Q8N6F1] |
| 4.2 | RELVMRVTTV [MARCHF4, Q9P2E8] |

The binders below were run against T5, ARHGAP21, Q5T5U3 (assay: holdup assay). Details: plain residues with an end cap or a label only (N-terminal biotin on a linker: ado-ado).
Design: key: below the threshold = too weak to quantify, mostly under pKd 3.1 to 4

| pKd | Binder |
| --- | --- |
| 3.98 | PASAKGPLGV [CLDN19, Q8N6F1] |
| below the threshold | RELVMRVTTV [MARCHF4, Q9P2E8] |

Each binder was assayed against T6, DFNB31_2, Q9P202 (assay: holdup assay). Details: plain residues with an end cap or a label only (N-terminal biotin on a linker: ado-ado).
Design: key: below the threshold = too weak to quantify, mostly under pKd 3.1 to 4

| pKd | Binder |
| --- | --- |
| below the threshold | PASAKGPLGV [CLDN19, Q8N6F1] |
| below the threshold | RELVMRVTTV [MARCHF4, Q9P2E8] |

The binders below were run against GIPC2, Q8TF65 (assay: holdup assay). Details: plain residues with an end cap or a label only (N-terminal biotin on a linker: ado-ado).
Design: key: below the threshold = too weak to quantify, mostly under pKd 3.1 to 4

Chain of GIPC2, Q8TF65 (Q8TF65 112-203): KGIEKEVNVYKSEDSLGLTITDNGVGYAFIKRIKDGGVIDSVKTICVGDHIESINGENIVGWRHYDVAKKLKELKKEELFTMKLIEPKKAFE

| pKd | Binder |
| --- | --- |
| below the threshold | PASAKGPLGV [CLDN19, Q8N6F1] |
| below the threshold | RELVMRVTTV [MARCHF4, Q9P2E8] |

Each binder was assayed against FRMPD2_3, Q68DX3 (assay: holdup assay). Details: plain residues with an end cap or a label only (N-terminal biotin on a linker: ado-ado).
Design: key: below the threshold = too weak to quantify, mostly under pKd 3.1 to 4

Chain of FRMPD2_3, Q68DX3 (Q68DX3 1073-1166): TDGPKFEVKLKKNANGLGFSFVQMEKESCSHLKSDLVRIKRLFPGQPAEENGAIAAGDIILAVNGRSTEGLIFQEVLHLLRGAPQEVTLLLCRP

| pKd | Binder |
| --- | --- |
| below the threshold | PASAKGPLGV [CLDN19, Q8N6F1] |
| below the threshold | RELVMRVTTV [MARCHF4, Q9P2E8] |

These binders were tested against Inadl_10, Q8NI35 (assay: holdup assay). Details: plain residues with an end cap or a label only (N-terminal biotin on a linker: ado-ado).
Design: key: below the threshold = too weak to quantify, mostly under pKd 3.1 to 4

Chain of Inadl_10, Q8NI35 (Q8NI35 1673-1763): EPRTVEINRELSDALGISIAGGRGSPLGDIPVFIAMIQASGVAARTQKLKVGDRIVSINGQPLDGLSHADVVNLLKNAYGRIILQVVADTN

| pKd | Binder |
| --- | --- |
| below the threshold | PASAKGPLGV [CLDN19, Q8N6F1] |
| below the threshold | RELVMRVTTV [MARCHF4, Q9P2E8] |

The binders below were run against Inadl_6, Q8NI35 (assay: holdup assay). Details: plain residues with an end cap or a label only (N-terminal biotin on a linker: ado-ado).
Design: key: below the threshold = too weak to quantify, mostly under pKd 3.1 to 4

Chain of Inadl_6, Q8NI35 (Q8NI35 1058-1167): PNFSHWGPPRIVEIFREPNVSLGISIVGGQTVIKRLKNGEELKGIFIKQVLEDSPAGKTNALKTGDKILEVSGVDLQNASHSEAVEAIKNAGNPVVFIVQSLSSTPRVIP

| pKd | Binder |
| --- | --- |
| below the threshold | PASAKGPLGV [CLDN19, Q8N6F1] |
| 3.95 | RELVMRVTTV [MARCHF4, Q9P2E8] |

Each binder was assayed against T7, PDZRN3_1, Q9UPQ7 (assay: holdup assay). Details: plain residues with an end cap or a label only (N-terminal biotin on a linker: ado-ado).
Design: key: below the threshold = too weak to quantify, mostly under pKd 3.1 to 4

| pKd | Binder |
| --- | --- |
| below the threshold | PASAKGPLGV [CLDN19, Q8N6F1] |
| 3.77 | RELVMRVTTV [MARCHF4, Q9P2E8] |

The binders below were run against T8, SNTG1, Q9NSN8 (assay: holdup assay). Details: plain residues with an end cap or a label only (N-terminal biotin on a linker: ado-ado).
Design: key: below the threshold = too weak to quantify, mostly under pKd 3.1 to 4

| pKd | Binder |
| --- | --- |
| below the threshold | PASAKGPLGV [CLDN19, Q8N6F1] |
| 4.95 | RELVMRVTTV [MARCHF4, Q9P2E8] |

Each binder was assayed against T9, MPP7, Q5T2T1 (assay: holdup assay). Details: plain residues with an end cap or a label only (N-terminal biotin on a linker: ado-ado).
Design: key: below the threshold = too weak to quantify, mostly under pKd 3.1 to 4

| pKd | Binder |
| --- | --- |
| below the threshold | PASAKGPLGV [CLDN19, Q8N6F1] |
| below the threshold | RELVMRVTTV [MARCHF4, Q9P2E8] |

These binders were tested against MAGI2_5, Q86UL8 (assay: holdup assay). Details: plain residues with an end cap or a label only (N-terminal biotin on a linker: ado-ado).
Design: key: below the threshold = too weak to quantify, mostly under pKd 3.1 to 4

Chain of MAGI2_5, Q86UL8 (Q86UL8 915-1017): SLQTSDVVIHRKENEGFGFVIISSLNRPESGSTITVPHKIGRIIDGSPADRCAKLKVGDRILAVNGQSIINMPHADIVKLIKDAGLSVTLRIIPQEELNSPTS

| pKd | Binder |
| --- | --- |
| below the threshold | PASAKGPLGV [CLDN19, Q8N6F1] |
| 4.05 | RELVMRVTTV [MARCHF4, Q9P2E8] |

The binders below were run against MAGI3_2, Q5TCQ9 (assay: holdup assay). Details: plain residues with an end cap or a label only (N-terminal biotin on a linker: ado-ado).
Design: key: below the threshold = too weak to quantify, mostly under pKd 3.1 to 4

Chain of MAGI3_2, Q5TCQ9 (Q5TCQ9 398-503): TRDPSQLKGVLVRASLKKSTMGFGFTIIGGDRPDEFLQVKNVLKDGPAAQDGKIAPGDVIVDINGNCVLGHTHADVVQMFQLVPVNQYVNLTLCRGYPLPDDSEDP

| pKd | Binder |
| --- | --- |
| below the threshold | PASAKGPLGV [CLDN19, Q8N6F1] |
| 5.07 | RELVMRVTTV [MARCHF4, Q9P2E8] |

The binders below were run against T10, HTRA4, P83105 (assay: holdup assay). Details: plain residues with an end cap or a label only (N-terminal biotin on a linker: ado-ado).
Design: key: below the threshold = too weak to quantify, mostly under pKd 3.1 to 4

| pKd | Binder |
| --- | --- |
| below the threshold | PASAKGPLGV [CLDN19, Q8N6F1] |
| 4.74 | RELVMRVTTV [MARCHF4, Q9P2E8] |

The binders below were run against T11, DLG3_2, Q92796 (assay: holdup assay). Details: plain residues with an end cap or a label only (N-terminal biotin on a linker: ado-ado).
Design: key: below the threshold = too weak to quantify, mostly under pKd 3.1 to 4

| pKd | Binder |
| --- | --- |
| below the threshold | PASAKGPLGV [CLDN19, Q8N6F1] |
| 5.22 | RELVMRVTTV [MARCHF4, Q9P2E8] |

What follows are binders tested against T12, GRIP1_3, Q9Y3R0 (assay: holdup assay). Details: plain residues with an end cap or a label only (N-terminal biotin on a linker: ado-ado).
Design: key: below the threshold = too weak to quantify, mostly under pKd 3.1 to 4

| pKd | Binder |
| --- | --- |
| below the threshold | PASAKGPLGV [CLDN19, Q8N6F1] |
| below the threshold | RELVMRVTTV [MARCHF4, Q9P2E8] |
